According to the supplement of paper PMC10724198:
± gives the standard deviation of the averaged measurements.

System: Saccharomyces cerevisiae
Experiment: protein stability index of tFT-peptide fusion (C-terminal peptide) (PSI (0-1 scale)); higher = more stable (slower turnover)
Settings: genetic background: wild type; temperature: 30 C
Protocol: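 MPS profiling in S. cerevisiae of the yeast C-terminome library: the last 12 aa of each annotated ORF are fused to the C-terminus of a sfGFP-mCherry timer, after a GGGS linker. Cells are FACS-sorted into 8 mCherry/sfGFP bins and deep-sequenced. PSI runs from 0 (unstable) to 1 (stable); wild type and das1Δ backgrounds, two technical replicates each.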

NQAIQYANEFQQ [HOG1 C-terminal 12 aa] and NQRKANDNKRRR [RRP17 C-terminal 12 aa] are within error of each other in protein stability index: 0.715 ± 0.043 for the first, 0.77 ± 0.058 for the second.

First: NQRSFNDKSKRD [CAX4 C-terminal 12 aa]
Second: NSFDGLLVYLSN [CBF2 C-terminal 12 aa]
The protein stability index of the first is higher: 0.6901 ± 0.0064 for the first, 0.6615 ± 0.0065 for the second.

NSIVKQFKEIFK [AIM41 C-terminal 12 aa] and NSSSNESIQVVV [SFK1 C-terminal 12 aa] are within error of each other in protein stability index: 0.67 ± 0.0096 for the first, 0.696 ± 0.037 for the second.

NTLRISTVGQEF [PYK2 C-terminal 12 aa] and NTSGQKPNEYNY [APA1 C-terminal 12 aa] are within error of each other in protein stability index: 0.707 ± 0.0074 for the first, 0.698 ± 0.018 for the second.

NVGVIRPLLDLQ [YGR069W C-terminal 12 aa] and NVTKLAKERVLF [CPA1 C-terminal 12 aa] are within error of each other in protein stability index: 0.729 ± 0.015 for the first, 0.703 ± 0.055 for the second.

Compared with “NVYRLTLMIFRL [YMR013W-A C-terminal 12 aa]”, “NWVRYSSIYYQL [YDR194W-A C-terminal 12 aa]” is lower in protein stability index: 0.249 ± 0.0095 for the first, 0.14 ± 0.011 for the second.

NYPELPRLTFST [RFU1 C-terminal 12 aa] and NYRLEEQDVLTW [LYS14 C-terminal 12 aa] are within error of each other in protein stability index: 0.691 ± 0.0092 for the first, 0.693 ± 0.058 for the second.

PAAISGTVPSIF [DIN7 C-terminal 12 aa] and PAKFGIQFQYST [MDM10 C-terminal 12 aa] are within error of each other in protein stability index: 0.677 ± 0.017 for the first, 0.662 ± 0.038 for the second.

Compared with PCTASITSLISF [YDR269C C-terminal 12 aa], PDEISFLQQFTS [KAP104 C-terminal 12 aa] is lower in protein stability index: 0.731 ± 0.03 for the first, 0.676 ± 0.023 for the second.

Going from PEAEGPTVEEVD [SSA1 C-terminal 12 aa] to PELSSTVSHNRA [WSC3 C-terminal 12 aa], the protein stability index rises from 0.694 ± 0.019 to 0.783 ± 0.07.

PEMTRRGRGPRR [RPA49 C-terminal 12 aa] and PFPLLRLSAPFK [OST3 C-terminal 12 aa] are within error of each other in protein stability index: 0.673 ± 0.033 for the first, 0.749 ± 0.061 for the second.

PFPLPSTERVIF [ADY2 C-terminal 12 aa] and “PHYAGCLEDIIF [YER066C-A C-terminal 12 aa]” are within error of each other in protein stability index: 0.73 ± 0.023 for the first, 0.74 ± 0.035 for the second.

PIKEVLLENWDQ [PUS5 C-terminal 12 aa] and PIRTPDAKKPKI [BUR2 C-terminal 12 aa] are within error of each other in protein stability index: 0.683 ± 0.024 for the first, 0.8 ± 0.13 for the second.

PIVHYISDRRTV [ARC15 C-terminal 12 aa] and PKETLHRSDHQG [YPR039W C-terminal 12 aa] are within error of each other in protein stability index: 0.688 ± 0.0093 for the first, 0.689 ± 0.076 for the second.

PKFSKPDPLKRD [SAC1 C-terminal 12 aa] and PLGEVDLNSFKN [YHP1 C-terminal 12 aa] are within error of each other in protein stability index: 0.6853 ± 0.005 for the first, 0.682 ± 0.034 for the second.

Going from PLLELVMELRDR [MOB1 C-terminal 12 aa] to PLRLLIRPVGEL [YOR248W C-terminal 12 aa], the protein stability index falls from 0.736 ± 0.01 to 0.673 ± 0.042.

First: PLWNQRRDDLFH [NIT2 C-terminal 12 aa]
Second: PMALFGIFAVAL [AFB1 C-terminal 12 aa]
The protein stability index of the first is higher: 0.744 ± 0.055 for the first, 0.596 ± 0.0014 for the second.

PNVSYIEEKLNQ [MAS1 C-terminal 12 aa] and PPNTLWHYNFRK [MRPL28 C-terminal 12 aa] are within error of each other in protein stability index: 0.717 ± 0.011 for the first, 0.69 ± 0.018 for the second.

Going from PQGFEIIELLNF [ROM1 C-terminal 12 aa] to PRSDDEDDEDSE [FAP7 C-terminal 12 aa], the protein stability index falls from 0.718 ± 0.013 to 0.671 ± 0.025.

First: PSSDHAKSVMGE [YML101C-A C-terminal 12 aa]
Second: PSTLIITTLLFK [YJR023C C-terminal 12 aa]
The protein stability index of the first is higher: 0.6804 ± 0.0044 for the first, 0.61 ± 0.017 for the second.

PSYCSLRWSHRT [YLR169W C-terminal 12 aa] and PTPKALTNEKTH [MGR1 C-terminal 12 aa] are within error of each other in protein stability index: 0.705 ± 0.029 for the first, 0.664 ± 0.015 for the second.

PTYDNNRHYGND [YFL032W C-terminal 12 aa] and PVHLEAIDLIDC [HSP150 C-terminal 12 aa] are within error of each other in protein stability index: 0.702 ± 0.018 for the first, 0.714 ± 0.024 for the second.

First: PVRMYALKPMPN [TAE1 C-terminal 12 aa]
Second: PWFAPIREQIEK [CKA1 C-terminal 12 aa]
The protein stability index of the first is lower: 0.665 ± 0.04 for the first, 0.7489 ± 0.0034 for the second.

QAKEVFDKMQKE [FMP23 C-terminal 12 aa] and QARKSKSVSFYA [RPT5 C-terminal 12 aa] are within error of each other in protein stability index: 0.686 ± 0.065 for the first, 0.692 ± 0.027 for the second.

QDMMSGFLGGSK [GET4 C-terminal 12 aa] and QDNSEVVDLTSD [NFI1 C-terminal 12 aa] are within error of each other in protein stability index: 0.667 ± 0.0077 for the first, 0.6728 ± 0.006 for the second.

QGMLQSFLDREL [YOL057W C-terminal 12 aa] and QHSRGSPNNSNN [YKU80 C-terminal 12 aa] are within error of each other in protein stability index: 0.666 ± 0.042 for the first, 0.708 ± 0.039 for the second.

QIAGRYVVDTSK [ADH2 C-terminal 12 aa] and QINDLEIYRKRL [SNT309 C-terminal 12 aa] are within error of each other in protein stability index: 0.6522 ± 0.0027 for the first, 0.68 ± 0.029 for the second.

QKLGIIGKNDLK [PSD1 C-terminal 12 aa] and QKYQVYKNFETL [UTR4 C-terminal 12 aa] are within error of each other in protein stability index: 0.709 ± 0.016 for the first, 0.688 ± 0.0077 for the second.

QLHLVLTLRGGN [RUB1 C-terminal 12 aa] and QLSRNEESLMKK [COS5 C-terminal 12 aa] are within error of each other in protein stability index: 0.74 ± 0.053 for the first, 0.752 ± 0.059 for the second.

QMTRNVNNNDFS [YAH1 C-terminal 12 aa] and QMVRDEGFEKNP [GPM3 C-terminal 12 aa] are within error of each other in protein stability index: 0.664 ± 0.014 for the first, 0.644 ± 0.036 for the second.

First: QPDDKTKGILDR [ERV41 C-terminal 12 aa]
Second: QQEQDKKKKSNH [PRE6 C-terminal 12 aa]
The protein stability index of the first is higher: 0.682 ± 0.03 for the first, 0.49 ± 0.013 for the second.

Going from QRDFLLFYNAIM [CDC36 C-terminal 12 aa] to QSFETVFAGQKP [MET17 C-terminal 12 aa], the protein stability index rises from 0.533 ± 0.075 to 0.702 ± 0.027.

QTDNTSATNQLL [YSP2 C-terminal 12 aa] and QTINTKPLYIKN [YGR290W C-terminal 12 aa] are within error of each other in protein stability index: 0.701 ± 0.029 for the first, 0.665 ± 0.075 for the second.

QVGKSQAQAVTL [ANY1 C-terminal 12 aa] and QVPEEDFPVVNY [DNL4 C-terminal 12 aa] are within error of each other in protein stability index: 0.7167 ± 0.0057 for the first, 0.718 ± 0.034 for the second.

RAEVAALAAENK [PFK1 C-terminal 12 aa] and RAHITKQKKKGY [SDA1 C-terminal 12 aa] are within error of each other in protein stability index: 0.6608 ± 0.0054 for the first, 0.6636 ± 0.0011 for the second.

Going from RARLIRKKKTIN [YER085C C-terminal 12 aa] to RAVTPTGKKGRN [YOR296W C-terminal 12 aa], the protein stability index rises from 0.202 ± 0.022 to 0.6578 ± 0.0052.

Going from “RCNVYIIRCIHH [YOL164W-A C-terminal 12 aa]” to RCWVQAVFDVPQ [ABP140 C-terminal 12 aa], the protein stability index rises from 0.51 ± 0.037 to 0.691 ± 0.046.

RDHDLKDCGDIF [OSH2 C-terminal 12 aa] and RELFGVGTPQKL [TEA1 C-terminal 12 aa] are within error of each other in protein stability index: 0.698 ± 0.039 for the first, 0.728 ± 0.023 for the second.

Compared with RELTDLFGYKLG [SLM4 C-terminal 12 aa], RESINEAKLRHT [BDH2 C-terminal 12 aa] is lower in protein stability index: 0.677 ± 0.02 for the first, 0.63 ± 0.011 for the second.

REWASNTVKKEK [EMC5 C-terminal 12 aa] and RFRVVLGDSDDE [PSH1 C-terminal 12 aa] are within error of each other in protein stability index: 0.692 ± 0.024 for the first, 0.721 ± 0.075 for the second.

Going from RGRGALVDSDDE [ELF1 C-terminal 12 aa] to RGSCDNWKKRQN [YBL044W C-terminal 12 aa], the protein stability index falls from 0.674 ± 0.046 to 0.482 ± 0.0072.
